From patent US20150132813A1, “BIOSYNTHETIC PATHWAYS, RECOMBINANT CELLS, AND METHODS” (REGENTS OF THE UNIVERSITY OF MINNESOTA, priority 2012, published 2015)

Key:
[1] = system: PA1 strain; experiment: Shake flask fermentation for pentanoic acid production (PA1 strain with pIPA1, pIPA3 and a DC-DH plasmid), HPLC; settings: aldehyde dehydrogenase varied, wild-type KIVD as 2-ketoacid decarboxylase; 40 g/L glucose, 48 hours, 30° C.
[2] = system: PA1 strain; experiment: Shake flask fermentation for 2-methylbutyric acid production (PA1 strain with pIPA1, pIPA2 and a DC-DH plasmid), HPLC; settings: aldehyde dehydrogenase varied, wild-type KIVD as 2-ketoacid decarboxylase; 40 g/L glucose, 48 hours, 30° C.
[3] = system: CCC(C)C(=O)C(=O)O; experiment: purified protein, by the assay type; settings: other: substrate of IPDC, coupled assay, pH 6.8
Method: (§1) The kinetic parameters were measured by monitoring the NADH absorbance at 340 nm.
(§2) The kinetic parameters were measured by monitoring the NADH absorbance at 340 nm. The activity of IPDC was measured using a coupled enzymatic assay method.
(§3) The activity of IPDC was measured using a coupled enzymatic assay method. Excess of an appropriate aldehyde dehydrogenase (AldH for 2-Keto-3-methylvalerate and KDHba for 2-Ketocaproate) was used to oxidize aldehyde into acid while cofactor NAD+ was reduced to NADH. The assay mixture contained 0.5 mM NAD+, 0.1 μM appropriate aldehyde dehydrogenase and corresponding 2-keto acid in the range of 1 mM to 8 mM in assay buffer (50 mM NaH2PO4, pH 6.8, 1 mM MgSO4, 0.5 mM ThDP) with a total volume of 78 μL. To start the reaction, 2 μL of 1 μM IPDC was added and generation of NADH was monitored at 340 nm. Kinetic parameters (kcat and KM) were determined by fitting initial rate data to the Michaelis-Menten equation.

[4] = system: CCCCC(=O)C(=O)O; experiment: purified protein, by the assay type; settings: other: substrate of IPDC, coupled assay, pH 6.8
Method: as §1, §2, §3

[5] = biological target: indolepyruvate decarboxylase (IPDC) (Salmonella enterica, UniProt H9L492); experiment: Coupled enzymatic assay of IPDC (NADH absorbance at 340 nm); settings: substrate of IPDC, pH 6.8
Sequence of indolepyruvate decarboxylase (IPDC) (H9L492 1-550): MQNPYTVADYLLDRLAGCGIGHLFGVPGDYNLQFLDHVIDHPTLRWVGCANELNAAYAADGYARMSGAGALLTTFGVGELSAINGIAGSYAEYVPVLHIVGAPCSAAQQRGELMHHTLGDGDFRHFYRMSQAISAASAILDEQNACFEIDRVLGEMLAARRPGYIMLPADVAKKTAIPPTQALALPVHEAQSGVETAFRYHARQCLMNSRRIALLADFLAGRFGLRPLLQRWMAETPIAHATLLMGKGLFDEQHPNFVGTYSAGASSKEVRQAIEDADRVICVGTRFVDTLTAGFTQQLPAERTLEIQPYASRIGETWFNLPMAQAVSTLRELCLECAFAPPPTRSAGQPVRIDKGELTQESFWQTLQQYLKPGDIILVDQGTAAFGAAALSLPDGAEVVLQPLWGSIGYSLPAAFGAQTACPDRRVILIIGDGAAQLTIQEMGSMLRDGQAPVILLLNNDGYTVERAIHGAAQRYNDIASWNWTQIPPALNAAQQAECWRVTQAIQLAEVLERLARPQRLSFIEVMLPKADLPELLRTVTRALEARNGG
Method: as §1, §2, §3

[6] = system: α-ketoglutaric semialdehyde dehydrogenase KDHba; settings: substrate of KDHba; from Xiong et al., Sci Rep 2012; cited from earlier work
[7] = biological target: T1, 3-hydroxypropionaldehyde dehydrogenase AldH (Escherichia coli, UniProt P23883); experiment: Enzymatic assay of AldH (NADH absorbance at 340 nm); settings: substrate of AldH; pH 8.0, 0.5 mM NAD+
T1 sequence (P23883 1-495): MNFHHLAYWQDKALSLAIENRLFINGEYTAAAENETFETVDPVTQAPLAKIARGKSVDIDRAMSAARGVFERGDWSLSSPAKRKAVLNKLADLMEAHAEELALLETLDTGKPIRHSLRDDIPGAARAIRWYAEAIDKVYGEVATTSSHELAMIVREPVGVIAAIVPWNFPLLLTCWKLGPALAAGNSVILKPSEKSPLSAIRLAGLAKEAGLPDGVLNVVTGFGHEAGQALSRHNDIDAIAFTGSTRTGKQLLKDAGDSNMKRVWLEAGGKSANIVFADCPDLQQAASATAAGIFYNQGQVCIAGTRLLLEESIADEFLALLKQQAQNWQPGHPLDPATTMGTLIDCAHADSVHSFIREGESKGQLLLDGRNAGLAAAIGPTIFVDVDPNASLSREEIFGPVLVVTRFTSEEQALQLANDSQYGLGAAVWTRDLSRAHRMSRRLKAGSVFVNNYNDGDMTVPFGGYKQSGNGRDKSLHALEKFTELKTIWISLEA
Method: as §1
(§4) Enzymatic assay of KDHba consisted of 0.5 mM NAD+ and valeraldehyde in the range of 50 μM to 400 μM in assay buffer (50 mM NaH2PO4, pH 8.0, 1 mM DTT) with a total volume of 78 μL. To start the reaction, 2 μL of 1 M KDHba was added and generation of NADH was monitored at 340 nm (extinction coefficient, 6.22 mM^−1 cm^−1). A similar protocol was used for AldH with 2-Methyl butyraldehyde concentrations in the range of 1 mM to 6 mM.

[8] = substrate: CCC(C)C=O; experiment: purified protein, by the assay type; settings: other: substrate of AldH, pH 8.0, 0.5 mM NAD+, 30.0 °C
Method: as §1, §4

YdcW: γ-aminobutyraldehyde dehydrogenase YdcW from E. coli
pentanoic acid titer [1]: 0.22 g/L | 2-methylbutyric acid titer [2]: 0.23 g/L

indolepyruvate decarboxylase (IPDC) (Salmonella enterica subsp. enterica serovar Typhimurium str. LT2)
Km [3]: 0.85 mM | kcat [3]: 4.13 ± 0.21 s⁻¹ | kcat/Km [3]: 4860 M⁻¹ s⁻¹ | Km [4]: 0.63 mM | kcat [4]: 1.89 ± 0.06 s⁻¹ | kcat/Km [4]: 3000 M⁻¹ s⁻¹

CCC(C)C(=O)C(=O)O (stereo not drawn) [2-Keto-3-methylvalerate, 2-keto-3-methylvalerate]
kcat [5]: 4.13 s⁻¹

CC(C)CC=O [isovaleraldehyde]
Km [6]: 7.62 mM

CC(C)C=O [isobutyraldehyde]
Km [6]: 34.5 mM

CCCCC(=O)C(=O)O [2-Ketocaproate, 2-ketocaproate]
kcat [5]: 1.89 s⁻¹

CCC(C)C=O (stereo not drawn) [2-Methyl butyraldehyde, 2-methyl butyraldehyde]
kcat [7]: 3.55 s⁻¹

B1: 3-hydroxypropionaldehyde dehydrogenase AldH (Escherichia coli K-12) (protein)
chain: MNFHHLAYWQDKALSLAIENRLFINGEYTAAAENETFETVDPVTQAPLAKIARGKSVDIDRAMSAARGVFERGDWSLSSPAKRKAVLNKLADLMEAHAEELALLETLDTGKPIRHSLRDDIPGAARAIRWYAEAIDKVYGEVATTSSHELAMIVREPVGVIAAIVPWNFPLLLTCWKLGPALAAGNSVILKPSEKSPLSAIRLAGLAKEAGLPDGVLNVVTGFGHEAGQALSRHNDIDAIAFTGSTRTGKQLLKDAGDSNMKRVWLEAGGKSANIVFADCPDLQQAASATAAGIFYNQGQVCIAGTRLLLEESIADEFLALLKQQAQNWQPGHPLDPATTMGTLIDCAHADSVHSFIREGESKGQLLLDGRNAGLAAAIGPTIFVDVDPNASLSREEIFGPVLVVTRFTSEEQALQLANDSQYGLGAAVWTRDLSRAHRMSRRLKAGSVFVNNYNDGDMTVPFGGYKQSGNGRDKSLHALEKFTELKTIWISLEA
Km [8]: 1.89 mM | kcat [8]: 3.55 ± 0.17 s⁻¹ | kcat/Km [8]: 1880 M⁻¹ s⁻¹ | pentanoic acid titer [1]: 1.76 g/L | 2-methylbutyric acid titer [2]: 2.51 g/L

B2: PadA: phenylacetaldehyde dehydrogenase PadA from E. coli (protein, UniProt P80668 1-499, looked up)
Phenylacetaldehyde …: MTEPHVAVLSQVQQFLDRQHGLYIDGRPGPAQSEKRLAIFDPATGQEIASTADANEADVDNAVMSAWRAFVSRRWAGRLPAERERILLRFADLVEQHSEELAQLETLEQGKSIAISRAFEVGCTLNWMRYTAGLTTKIAGKTLDLSIPLPQGARYQAWTRKEPVGVVAGIVPWNFPLMIGMWKVMPALAAGCSIVIKPSETTPLTMLRVAELASEAGIPDGVFNVVTGSGAVCGAALTSHPHVAKISFTGSTATGKGIARTAADHLTRVTLELGGKNPAIVLKDADPQWVIEGLMTGSFLNQGQVCAASSRIYIEAPLFDTLVSGFEQAVKSLQVGPGMSPVAQINPLVSRAHCDKVCSFLDDAQAQQAELIRGSNGPAGEGYYVAPTLVVNPDAKLRLTREEVFGPVVNLVRVADGEEALQLANDTEYGLTASVWTQNLSQALEYSDRLQAGTVWVNSHTLIDANLPFGGMKQSGTGRDFGPDWLDGWCETKSVCVRY
pentanoic acid titer [1]: 2.12 g/L | 2-methylbutyric acid titer [2]: 2.26 g/L

B3: Al dB: acetaldehyde dehydrogenase AldB from E. coli (protein, UniProt P37685 1-512, looked up)
Aldehyde dehydrogenase B: MTNNPPSAQIKPGEYGFPLKLKARYDNFIGGEWVAPADGEYYQNLTPVTGQLLCEVASSGKRDIDLALDAAHKVKDKWAHTSVQDRAAILFKIADRMEQNLELLATAETWDNGKPIRETSAADVPLAIDHFRYFASCIRAQEGGISEVDSETVAYHFHEPLGVVGQIIPWNFPLLMASWKMAPALAAGNCVVLKPARLTPLSVLLLMEIVGDLLPPGVVNVVNGAGGVIGEYLATSKRIAKVAFTGSTEVGQQIMQYATQNIIPVTLELGGKSPNIFFADVMDEEDAFFDKALEGFALFAFNQGEVCTCPSRALVQESIYERFMERAIRRVESIRSGNPLDSVTQMGAQVSHGQLETILNYIDIGKKEGADVLTGGRRKLLEGELKDGYYLEPTILFGQNNMRVFQEEIFGPVLAVTTFKTMEEALELANDTQYGLGAGVWSRNGNLAYKMGRGIQAGRVWTNCYHAYPAHAAFGGYKQSGIGRETHKMMLEHYQQTKCLLVSYSDKPLGLF
pentanoic acid titer [1]: 0.42 g/L | 2-methylbutyric acid titer [2]: 2.31 g/L

B4: GabD: succinate semialdehyde dehydrogenase GabD from E. coli (protein, UniProt P25526 1-482, looked up)
Succinate-semialdehyde …: MKLNDSNLFRQQALINGEWLDANNGEAIDVTNPANGDKLGSVPKMGADETRAAIDAANRALPAWRALTAKERATILRNWFNLMMEHQDDLARLMTLEQGKPLAEAKGEISYAASFIEWFAEEGKRIYGDTIPGHQADKRLIVIKQPIGVTAAITPWNFPAAMITRKAGPALAAGCTMVLKPASQTPFSALALAELAIRAGVPAGVFNVVTGSAGAVGNELTSNPLVRKLSFTGSTEIGRQLMEQCAKDIKKVSLELGGNAPFIVFDDADLDKAVEGALASKFRNAGQTCVCANRLYVQDGVYDRFAEKLQQAVSKLHIGDGLDNGVTIGPLIDEKAVAKVEEHIADALEKGARVVCGGKAHERGGNFFQPTILVDVPANAKVSKEETFGPLAPLFRFKDEADVIAQANDTEFGLAAYFYARDLSRVFRVGEALEYGIVGINTGIISNEVAPFGGIKASGLGREGSKYGIEDYLEIKYMCIGL
pentanoic acid titer [1]: 0.54 g/L | 2-methylbutyric acid titer [2]: 0.14 g/L
